Experimental data: patent US6998239B1, “Method for identifying a modulator of the binding of CCX CKR polypeptide to a chemokine” (ChemoCentryx, Inc., priority 1999, dated 2006)
Entries after “also recorded” stand apart in the source; their conditions may differ.

T1: CCX CKR (Homo sapiens, UniProt Q9NPB9)
T1 construct: Full length CCX CKR expression constructs were made in pIRESpuro expression vector; expressed in transfected cells
T1 sequence (Q9NPB9 1-350): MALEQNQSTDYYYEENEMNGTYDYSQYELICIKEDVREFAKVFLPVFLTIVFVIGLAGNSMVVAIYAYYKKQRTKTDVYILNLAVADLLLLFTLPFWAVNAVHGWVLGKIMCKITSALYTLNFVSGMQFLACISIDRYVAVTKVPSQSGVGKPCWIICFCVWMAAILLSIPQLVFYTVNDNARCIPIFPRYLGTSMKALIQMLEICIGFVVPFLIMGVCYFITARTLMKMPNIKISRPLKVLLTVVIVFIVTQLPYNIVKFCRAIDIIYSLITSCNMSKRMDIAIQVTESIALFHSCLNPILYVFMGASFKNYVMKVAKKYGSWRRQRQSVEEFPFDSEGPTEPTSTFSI

B1: mMIP-1gamma: murine chemokine MIP-1γ (CCF18) (protein)
chain: QITHATETKEVQSSLKAQQGLEIEMFHMGFQDSSDCCLSYNSRIQCSRFIGYFPTSGGCTRPGIIFISKRGFQVCANPSDRRVQRCIERLEQNSQPRTYKQ
B2: SLC: secondary lymphoid-tissue chemokine, recombinant (protein)
chain: SDGGAQDCCLKYSQRKIPAKVVRSYRKQEPSLGCSIPAILFLPRKRSQAELCADPKELWVQQLMQHLDKTPSPQKPAQGCRKDRGASKTGKKGKGSKGCKRTERSQTPKGP
B3: vMIPII: virally-encoded chemokine from the human Kaposi's sarcoma herpesvirus HHV8 (protein)
chain: LGASWHRPDKCCLGYQKRPLPQVLLSSWYPTSQLCSKPGVIFLTKRGRQVCADKSKDWVKKLMQQLPVTAR
B4: TECK: thymus expressed chemokine, recombinant (protein)
chain: QGVFEDCCLAYHYPIGWAVLRRAWTYRIQEVSGSCNLPAAIFYLPKRHRKVCGNPKSREVQRAMKLLDARNKVFAKLHHNTQTFQAGPHAVKKLSSGNSKLSSSKFSNPISSSKRNVSLLISANSGL
B5: murine CTACK: murine chemokine CTACK, also referred to as CCL27, ALP, ILC, and ESkine (protein)
chain: LPLPSSTSCCTQLYRQPLPSRLLRRIVHMELQEADGDCHLQAVVLHLARRSVCVHPQNRSLARWLERQGKRLQGTVPSLNLVLQKKMYSHPQQQN

How the values were obtained:
CCX CKR [1] = target: T1, CCX CKR; experiment: Radioligand binding competition with Scatchard transformation (binding constants); details: for Affinity class of CCX CKR ligands (summary of Examples 4-6): summary statement
Text: (§1) In one embodiment, binding is detected as described by Dairaghi et al., 1997, J. Biol. Chem. 272:28206-209 (incorporated by reference in its entirety for all purposes) substituting CCX CKR transfectants for the CCR3 transfectants). In one embodiment, binding is detected using the filter based technique described by Dairaghi et al., 1999, J. Biol. Chem. 274:2156 (incorporated by reference in its entirety for all purposes), e.g., as shown in FIG. 4. Briefly, this technology employs expanded, efficiency-maximized radioligand binding utilizing filtration protocols. In these assays, 1×10^5 CCXCKR-293 HEK cells are incubated with […] (MlP3beta) (final concentration of ˜0.05 nM) in the presence of unlabeled chemokine for 3 h at 4° C. in 25 mM HEPES, 140 mM NaCl, 1 mM CaCl2, 5 mM MgCl2, and 0.2% bovine serum albumin, adjusted to pH 7.1. Reactions were aspirated onto PEI-treated GF/B glass filters using a cell harvester (Packard). Filters are washed twice (25 mM HEPES, 500 mM NaCl, 1 mM CaCl25 mM MgCl2, adjusted to pH 7.1) and scintillant (e.g., MicroScint 20; 50 μl) is added to dried filters and counted (e.g., using a Packard Topcount scintillation counter). The competition dose-response curves is analyzed by standard methods to determine IC50 values (e.g., using GraphPad Prism software (San Diego, Calif.)). Additionally, a Scatchard transformation can be used to estimate the receptor sites per cell (e.g., using WaveMetrics Igor software (Lake Oswego, Oreg.)).
(§2) Binding analysis was carried out using efficiency-maximized radioligand binding utilizing filtration protocols designated “Displace Max” (Dairaghi et al., 1999, J Biol. Chem. 274:21569). In these assays, DisplaceMax employed the simultaneous interrogation of CCX CKR transfectants by >80 distinct purified chemokines in the ability to displace radiolabeled ELC or TECK, using the protocol described (Dairaghi et al., 1999, J Biol. Chem. 274:21569).
The binding interactions identified in the primary screen were examined quantitatively by extensive radioligand binding competition to CCX CKR stable transfectants and Scatchard transformation of the displacement data (FIG. 4B). […] In each case, the murine versions of these chemokines also bound, and with even greater affinity; the apparent Kd's are listed in FIG. 4B. […] In similar experiments, murine CTACK bound the receptor with a Kd of ˜9 nM (not shown). CTACK is also referred to as CCL27, ALP, ILC, and ESkine.

CCX CKR [2] = target: T1, CCX CKR; experiment: Ligand binding fingerprint: displacement of 125I-ELC from CCX CKR stable transfectants by cold chemokines; details: cold competitor 200 nM; human and murine ELC, SLC, TECK; comparable with 125I-TECK
Text: as §1
In order to rapidly and thoroughly define a given chemokine receptor's ligand binding fingerprint, we have established an approach to comprehensively profile chemokine receptors using a large array of purified chemokines and chemokine variants. We used this approach to confirm independently the interaction of ELC and other chemokines with CCX CKR. Employing radioligand binding of ^125I-labeled-ELC or ^125I-TECK to CCX CKR stable transfectants, chemokine specificity for the new receptor was determined.
as §2

CCX CKR [3] = target: T1, CCX CKR; experiment: Adhesion of HEK293-CCX CKR cells to immobilized ELC-stalkokine and competition by soluble chemokines; format: cell-based; details: 5-10 ug/ml soluble recombinant chemokine as competitor
Text: “Stalkokine” technology was used to :identify the chemokines bound by the CCX CKR. Briefly, immobilized native chemokines alone are incapable of capturing cells bearing cognate receptors (Imai et al., 1997, Cell 91:521). We have developed non-native chemokine structures, stalkokines, comprising chemokine moieties engineered as N-terminal attachments to extended modified mucins (Bazan et al., 1997, Nature 385:640). In one embodiment, stalkokines, harvested in the supernatants of HEK293 cells after transient transfection, are anchored to solid substrates via antibodies against carrier domains (e.g. poly-His epitopes) engineered to the carboxyl terminus, leaving the chemokine domain free to interact with candidate orphan receptors.
To determine ligand binding to CCX CKR, HEK293-CCX CKR cells were used to interrogate chemokine ‘stalkokines’ (SK), i.e., molecules in which discrete chemokine domains were engineered to be tethered to the end of an extended stalk structure. […] In all cases, nonadherent cells were removed by washing in PBS; remaining adherent cells were fixed with 1% glutaraldehyde, photoimaged and counted. […]

CCX CKR [4] = target: T1, CCX CKR; experiment: Ligand induced internalization of CCX CKR in 293 F-CCR10 cells (FACS, anti-Flag); format: cell-based; details: 100 nM chemokine, 37° C., 15 or 45 minutes
Procedure: 293 cells transfected with the Flag-CCX CKR fusion plasmid (i.e., “293 F-CCR10 cells;” see Example 3) were incubated at 37° C. with varying concentrations of chemokines (ELC, SLC, TECK, murine CTACK and MCP4) for 15 or 45 minutes. Following incubation, the cells were washed and fixed with 3% paraformaldehyde for 15 minutes on ice. The cells were stained with anti-Flag M1 antibody, followed by a PE-conjugated anti-mouse secondary antibody. FACS analysis were then carried out to determine surface expression of the receptor.
Results: A reduction in antibody binding in the presence of ligand is an indication of ligand-induced internalization of the receptor.

CCX CKR [5] = target: T1, CCX CKR; experiment: Preliminary chemotaxis analysis of CCX CKR transfectants; format: cell-based; details: preliminary chemotaxis analyses, not shown
CCX CKR [6] = target: T1, CCX CKR; experiment: Homologous competition binding of radiolabeled chemokine on HEK293-CCX CKR cells; details: data not shown
Text: Furthermore ELC-SK mediated adhesion was abolished in the presence of soluble native ELC as a competitor (FIG. 3A, top row). […] Moreover, radiolabeled ELC was used in a traditional homologous competition assay in the presence of increasing concentrations of unlabeled ELC. […] Taken together, the stalkokine-based adhesion and radiolabeled ligand binding/homologous competition assays indicate that CCX CKR is a new chemokine receptor that bound a novel compliment of chemokines.

| Molecule | Affinity class of CCX CKR ligands (summary of Examples 4-6) (CCX CKR [1]) | Binding to CCX CKR by displacement of 125I-labeled ELC (CCX CKR [2]) | Effect of soluble chemokine on ELC-SK mediated adhesion of HEK293-CCX CKR cells (CCX CKR [3]) | Internalization of the receptor (CCX CKR [4]) | Migration of CCX CKR transfectants in response to chemokine (CCX CKR [5]) | Affinity for CCX CKR in multipoint competition, in words (CCX CKR [1]; competition against 125I-ELC) | Homologous competition of radiolabeled TECK with cold TECK (CCX CKR [6]) |
| --- | --- | --- | --- | --- | --- | --- | --- |
| B1 | lower affinity | moderately |  |  |  |  |  |
| B2 | high affinity | bound well | ablation of adhesion; also recorded: significant reduction | Internalization of the receptor was observed | moderate migration |  |  |
| B3 | lower affinity | lower affinity |  |  |  | moderate to low affinity |  |
| B4 | high affinity | bound well | ablation of adhesion; also recorded: significant reduction | Internalization of the receptor was observed |  |  | Nearly identical results |
| B5 | high affinity |  |  | Internalization of the receptor was observed |  |  |  |
